The labels stand for the following.
B1: Splicing factor 3B subunit 2 (Homo sapiens), Q13435 (parent)
chain: MATEHPEPPKAELQLPPPPPPGHYGAWAAQELQAKLAEIGAPIQGNREELVERLQSYTRQTGIVLNRPVLRGEDGDKAAPPPMSAQLPGIPMPPPPLGLPPLQPPPPPPPPPPGLGLGFPMAHPPNLGPPPPLRVGEPVALSEEERLKLAQQQAALLMQQEERAKQQGDHSLKEHELLEQQKRAAVLLEQERQQEIAKMGTPVPRPPQDMGQIGVRTPLGPRVAAPVGPVGPTPTVLPMGAPVPRPRGPPPPPGDENREMDDPSVGPKIPQALEKILQLKESRQEEMNSQQEEEEMETDARSSLGQSASETEEDTVSVSKKEKNRKRRNRKKKKKPQRVRGVSSESSGDREKDSTRSRGSDSPAADVEIEYVTEEPEIYEPNFIFFKRIFEAFKLTDDVKKEKEKEPEKLDKLENSAAPKKKGFEEEHKDSDDDSSDDEQEKKPEAPKLSKKKLRRMNRFTVAELKQLVARPDVVEMHDVTAQDPKLLVHLKATRNSVPVPRHWCFKRKYLQGKRGIEKPPFELPDFIKRTGIQEMREALQEKEEQKTMKSKMREKVRPKMGKIDIDYQKLHDAFFKWQTKPKLTIHGDLYYEGKEFETRLKEKKPGDLSDELRISLGMPVGPNAHKVPPPWLIAMQRYGPPPSYPNLKIPGLNSPIPESCSFGYHAGGWGKPPVDETGKPLYGDVFGTNAAEFQTKTEEEEIDRTPWGELEPSDEESSEEEEEEESDEDKPDETGFITPADSGLITPGGFSSVPAGMETPELIELRKKKIEEAMDGSETPQLFTVLPEKRTATVGGAMMGSTHIYDMSTVMSRKGPAPELQGVEVALAPEELELDPMAMTQKYEEHVREQQAQVEKEDFSDMVAEHAAKQKQKKRKAQPQDSRGGSKKYKEFKF
partner: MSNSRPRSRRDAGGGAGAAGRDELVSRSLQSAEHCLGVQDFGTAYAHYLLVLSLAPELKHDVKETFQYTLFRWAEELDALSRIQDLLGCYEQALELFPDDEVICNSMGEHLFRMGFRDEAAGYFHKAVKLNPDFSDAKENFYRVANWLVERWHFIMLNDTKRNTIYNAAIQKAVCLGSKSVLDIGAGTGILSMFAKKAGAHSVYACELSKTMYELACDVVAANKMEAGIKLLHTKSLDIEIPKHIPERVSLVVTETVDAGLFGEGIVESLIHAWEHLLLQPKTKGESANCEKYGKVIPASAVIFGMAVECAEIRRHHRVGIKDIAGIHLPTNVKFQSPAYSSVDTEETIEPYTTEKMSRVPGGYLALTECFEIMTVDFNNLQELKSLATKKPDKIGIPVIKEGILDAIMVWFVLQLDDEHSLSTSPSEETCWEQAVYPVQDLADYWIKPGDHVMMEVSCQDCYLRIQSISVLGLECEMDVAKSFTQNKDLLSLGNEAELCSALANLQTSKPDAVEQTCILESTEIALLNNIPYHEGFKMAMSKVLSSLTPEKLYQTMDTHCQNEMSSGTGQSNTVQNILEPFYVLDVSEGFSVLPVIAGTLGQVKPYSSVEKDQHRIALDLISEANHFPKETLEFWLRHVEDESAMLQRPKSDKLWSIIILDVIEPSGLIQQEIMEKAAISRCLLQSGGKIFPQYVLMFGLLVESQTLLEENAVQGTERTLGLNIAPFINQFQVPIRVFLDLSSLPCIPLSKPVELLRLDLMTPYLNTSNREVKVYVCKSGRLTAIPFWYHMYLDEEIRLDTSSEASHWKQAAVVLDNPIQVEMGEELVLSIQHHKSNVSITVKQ
B2: Splicing factor 3B subunit 2 (Homo sapiens), Q13435 (parent)
chain: B1 chain
B3: Protein arginine N-methyltransferase 9 (Homo sapiens), Q6P2P2 (parent)
chain: B1 partner

Variants of B1 are the subject of the first experiment. The note with it: with anm9_human PRMT9, Q6P2P2.
Take R530K: the “effect of a mutation on the interaction” value is “with no effect”.

As to R471K, the “effect of a mutation on the interaction” value is listed as “with no effect”.

Turning to R515K, the “effect of a mutation on the interaction” value is “with no effect”.

Take R455K;R456K;R459K: the “effect of a mutation on the interaction” value was “with no effect”.

Regarding R537K, the “effect of a mutation on the interaction” value is given as “with no effect”.

Regarding R502K, the “effect of a mutation on the interaction” value is listed as “with no effect”.

In the case of R495K, the “effect of a mutation on the interaction” value is listed as “with no effect”.

The variants in the next experiment derive from B1. The note with it: with anm9_human PRMT9, Q6P2P2. The source holds these as a separate data set.
Turning to R508K, the “effect of a mutation on the interaction” value is given as “with no effect”.

The variants in another experiment derive from B2. The note with it: with smn_human SMN1, Q16637.
Chain of smn_human SMN1, Q16637 (Q16637 whole entry): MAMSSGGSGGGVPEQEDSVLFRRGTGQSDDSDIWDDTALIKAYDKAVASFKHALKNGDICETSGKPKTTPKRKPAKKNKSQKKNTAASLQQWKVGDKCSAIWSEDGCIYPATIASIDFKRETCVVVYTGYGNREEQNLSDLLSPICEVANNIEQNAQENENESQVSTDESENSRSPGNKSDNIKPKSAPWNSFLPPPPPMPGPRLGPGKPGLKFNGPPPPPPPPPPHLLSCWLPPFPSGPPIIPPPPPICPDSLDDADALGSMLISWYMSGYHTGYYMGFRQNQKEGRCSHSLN
R508K: the “effect of a mutation on the interaction” value is recorded as “disrupting interaction strength”.

The variants in a further experiment derive from B3. The note with it: with sf3b2_human SF3B2, Q13435.
In the case of L182A;D183A;I184A;G185A, the “effect of a mutation on the interaction” value is “disrupting interaction strength”.
